The values that follow come from patent US20020058626A1, “Agents for preventing and treating thrombocytopenia” (CHUGAI SEIYAKU KABUSHIKI KAISHA, priority 1996, published 2002).

Experiment [1] concerns platelet count. As to the kind of experiment: Effectiveness of PTH derivative, daily administration to mouse (peripheral platelet count). The format is in vivo. The settings on record: C57B1/6N mice, 200 μg/kg subcutaneous once a day for six days, 24 h after final administration; FIG. 3. How it is done: Ten-week old male C57B1/6N mice as purchased from Japan Charles River Co., Ltd. were used in the experiment.
Drug solutions to be administered were prepared basically from human PTH(1-84) and human PTH(1-34) by the same procedure as in Example 1 to give a drug concentration of 20 μg/mL.
Eighteen mice were divided into three groups, which were administered subcutaneously with the two drug solutions and a control (citrate buffer) for six days on a once-a-day basis in a volume of 10 mL/kg. […] The administration was initiated at 10 a.m.
After 24 h of the final administration, a blood sample was withdrawn from each mouse through the orbital vein. Peripheral corpuscle counts were obtained with an automatic corpuscle counter F-800 (TOA MEDICAL ELECTRONICS CO., LTD)

The subject of the next experiment is platelet counts. Description: Test for single-dose administration to mouse (peripheral platelet count). The format is in vivo. As to conditions: C57B1/6N mice, single dose 10 μg/kg through the tail vein, 6 and 9 h after the administration; FIG. 1. How it is done: Nine-week old male C57B1/6N mice as purchased from Japan Charles River Co. Ltd. were used in the experiment.
Human PTH(1-84) was dissolved in a citrate buffer (pH 5; containing 0.05% of Tween 80) at final concentrations of 1, 0.2 and 0.04 ˜g/mL so as to prepare the drug solutions to be administered.
Each of the thus prepared drug solutions and a control (citrate buffer) was administered to 15 mice through the tail vein in a volume of 10 mL/kg. […] The administration was initiated at 10 a.m.
After 3, 6 and 9 hours of the administration, five mice were picked up at random from each group of animals and blood samples were withdrawn through the orbital vein. At 10 a.m. on the same day, separate blood samples were taken from untreated mice (four in number) to obtain the preadministration value. Peripheral corpuscle counts were obtained with an automatic corpuscle counter F-800 (TOA MEDICAL ELECTRONICS CO., LTD.)

For experiment [2], the system named is platelet count. As to the kind of experiment: Test for daily administration to mouse (peripheral platelet count). The format is in vivo. As to conditions: C57B1/6N mice, subcutaneous once a day, FIG. 2. How it is done:
Nine-week old male C57B1/6N mice as purchased from Japan Charles River Co., Ltd. were used in the experiment.
Drug solutions to be administered were prepared basically by the same procedure as in Example 1 to give drug concentrations of 5, 20 and 80 μg/mL.
The mice under test were divided into four groups, which were administered subcutaneously with the three drug solutions and a control (citrate buffer) once a day in a volume of 10 mL/kg. […] The administration was initiated at 10 a.m.
On days 5, 7 and 9 after the start of administration, five or six mice were picked up at random from each group of animals and blood samples were withdrawn through the orbital vein. The sampling of blood was timed to occur 24 h of the final administration. Separate blood samples were taken from untreated mice (five in number) to obtain the value for normal mouse. Peripheral corpuscle counts were obtained with an automatic corpuscle counter F-800(TOA MEDICAL ELECTRONICS CO., LTD.).

For experiment [3], the system named is platelet count. As to the kind of experiment: Test for daily administration to rabbit (platelet count). Type of experiment: in vivo. The settings on record: three rabbits, FIG. 4. On the procedure: Six 12-15 week old male Japanese albino rabbits JW/CSK were used in the experiment. The animals were individually kept in aluminum rabbit bracket cages Rb-1 (350^w×500^d×350^h mm) in a vavarium in a specific pathogen-free environment under the following conditions: temperature, 24±2° C.; humidity, 50±10%; illumination, light turned on at 5:00 and turned off at 19:00; ventilation, 15 changes/hr. Each animal was supplied with 120 g of a radiation-sterilized feed for rabbits RM (purchased from Funahashi Farm) per day. The animals were also allowed to drink to tap water ad libitum from an automatic water feeder.
Human PTH(1-84) was administered in a volume of 2 mL/vial at a concentration of 200 μg/mL. A solvent was also supplied in a volume of 2 mL/vial. Both the drug and the control were stored at −135° C. until use.
PTH (200 μg/kg) was administered to the rabbits subcutaneously at the back of their neck for 13 consecutive days. The solvent was similarly administered in the same volume as the dose of a rh-PTH solution calculated from their body weight.
Blood samples (0.5 mL) were withdrawn from the rabbits through the lateral auricular vein before the administration and on days 2, 6, 9 and 13 during the administration period. […]

Experiment [4] relates to BFU-E (precursor cells of erythrocytes). As to conditions: report by Meytes et al, J. Clin. Invest. Vol. 67, 1263-1269:1981; cited from earlier work.
The test system of experiment [5] is CFU-GM (precursor cells of granulocytes and macrophages). As to conditions: report by Meytes et al, J. Clin. Invest. Vol. 67, 1263-1269:1981; cited from earlier work.

For the molecule “human PTH(1-34) (SVSEIQLMHNLGKHLNSMERVEWLRKKLQDVHNF; Parathyroid hormone; UniProt P01270 32-65, looked up, fragment) [PTH(134), partial peptide of PTH composed of 34 amino acids from the N terminus; purchased from Peptide Institute, Inc]”, the “platelet increasing action compared with PTH(1-84)” value with platelet count [1] is recorded as “comparable platelet increasing action to PTH(1-84)”.

B1: human PTH(1-84) (protein, UniProt P01270 32-115, looked up)
Parathyroid hormone: SVSEIQLMHNLGKHLNSMERVEWLRKKLQDVHNFVALGAPLAPRDAGSQRPRKKEDNVLVESHEKSLGEADKADVNVLTKAKSQ
modifications: Parathyroid hormone
B1: in the experiment with platelet counts, the “platelet counts versus control” value was “significant increase in platelet counts over the control”. Also, the “platelet count versus control, day 5” value with platelet count [2] (200 and 800 μg/kg groups only, day 5, 24 h after final administration) is on record as “tendency to increase”. Moreover, in the experiment on platelet count [2] (all treated groups (50, 200 and 800 μg/kg), day 7), the “platelet count versus control, day 7” value was “significantly higher in platelet count than the control”. The “platelet count on day 13” value with platelet count [3] (200 μg/kg subcutaneous daily for 13 days, day 13) is on record as “substantially returned to the initial level”. Moreover, the “platelet count relative to the initial value, increase from day 2 until day 6” value with platelet count [3] (200 μg/kg subcutaneous daily) was “two to four”. Also, in experiment [4], the “in vitro colony formation by BFU-E” value is given as “interfered with”. Besides, in experiment [5], the “in vitro colony formation by CFU-GM” value is “interfered with”.
